Data from patent EP0528847B1.

Legend:
[1] = molecular target: full-length human γ-interferon receptor, on cells (human) (UniProt P15260); assay: ¹²⁵I-IFN-γ binding to COS7 cells transfected with plasmid T884-5, Expt. 1
[2] = molecular target: full-length human γ-interferon receptor, on cells (human) (UniProt P15260); assay: ¹²⁵I-IFN-γ binding to COS7 cells transfected with plasmid T886-5, Expt. 2
[3] = molecular target: full-length human γ-interferon receptor, on cells (human) (UniProt P15260); assay: ¹²⁵I-IFN-γ binding to COS7 cells transfected with plasmid T886-6, Expt. 3
[4] = molecular target: full-length human γ-interferon receptor, on cells (human) (UniProt P15260); assay: ¹²⁵I-IFN-γ binding to COS7 cells transfected with plasmid T884-5, Expt. 1'
[5] = molecular target: full-length human γ-interferon receptor, on cells (human) (UniProt P15260); assay: ¹²⁵I-IFN-γ binding to COS7 cells transfected with plasmid T886-5, Expt. 2'
[6] = molecular target: full-length human γ-interferon receptor, on cells (human) (UniProt P15260); assay: ¹²⁵I-IFN-γ binding to COS7 cells transfected with plasmid T886-6, Expt. 3'

Chain of UniProt P15260 (P15260 18-489): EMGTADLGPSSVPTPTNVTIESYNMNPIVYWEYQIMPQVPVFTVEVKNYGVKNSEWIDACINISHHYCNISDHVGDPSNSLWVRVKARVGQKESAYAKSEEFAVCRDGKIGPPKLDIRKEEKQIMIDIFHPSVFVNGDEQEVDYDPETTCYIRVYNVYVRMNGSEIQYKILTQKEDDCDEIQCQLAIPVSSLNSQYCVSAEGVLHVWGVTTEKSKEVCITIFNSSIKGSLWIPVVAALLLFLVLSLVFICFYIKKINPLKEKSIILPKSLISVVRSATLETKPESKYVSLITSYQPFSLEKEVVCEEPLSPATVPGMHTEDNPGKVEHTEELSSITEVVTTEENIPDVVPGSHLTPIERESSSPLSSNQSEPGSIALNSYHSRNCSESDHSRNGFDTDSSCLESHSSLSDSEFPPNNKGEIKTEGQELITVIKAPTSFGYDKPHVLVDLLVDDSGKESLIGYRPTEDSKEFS

human γ-interferon (amino acids 4-137 of the mature protein), produced in E. coli 294 from plasmid pGIF4-137 (from UniProt P01579 4-137) (ligand)
Background Binding (1), ¹²⁵I IFN-γ cpm bound at 0.1 µg/ml unlabeled IFN-γ [1]: 1830 cpm
Background Binding (2), ¹²⁵I IFN-γ cpm bound at 10 µg/ml unlabeled IFN-γ [1]: 130 cpm
Specific Binding (3) = (1) - (2) [1]: 1700 cpm
Background Binding (1), ¹²⁵I IFN-γ cpm bound at 0.1 µg/ml unlabeled IFN-γ [2]: 1980 cpm
Background Binding (2), ¹²⁵I IFN-γ cpm bound at 10 µg/ml unlabeled IFN-γ [2]: 150 cpm
Specific Binding (3) = (1) - (2) [2]: 1830 cpm
Background Binding (1), ¹²⁵I IFN-γ cpm bound at 0.1 µg/ml unlabeled IFN-γ [3]: 2530 cpm
Background Binding (2), ¹²⁵I IFN-γ cpm bound at 10 µg/ml unlabeled IFN-γ [3]: 231 cpm
Specific Binding (3) = (1) - (2) [3]: 2300 cpm
Background Binding (1), ¹²⁵I IFN-γ cpm bound at 0.1 µg/ml unlabeled IFN-γ [4]: 1560 cpm
Background Binding (2), ¹²⁵I IFN-γ cpm bound at 10 µg/ml unlabeled IFN-γ [4]: 77.8 cpm
Specific Binding (3) = (1) - (2) [4]: 1480 cpm
Background Binding (1), ¹²⁵I IFN-γ cpm bound at 0.1 µg/ml unlabeled IFN-γ [5]: 2400 cpm
Background Binding (2), ¹²⁵I IFN-γ cpm bound at 10 µg/ml unlabeled IFN-γ [5]: 198 cpm
Specific Binding (3) = (1) - (2) [5]: 2210 cpm
Background Binding (1), ¹²⁵I IFN-γ cpm bound at 0.1 µg/ml unlabeled IFN-γ [6]: 2090 cpm
Background Binding (2), ¹²⁵I IFN-γ cpm bound at 10 µg/ml unlabeled IFN-γ [6]: 69.8 cpm
Specific Binding (3) = (1) - (2) [6]: 2020 cpm
